{
  "source": "paper PMC12081870",
  "about": "(Communications Biology, 2025)",
  "key": {"actin": {"system": "actin", "test": "Pyrene actin assay, actin polymerisation in the absence of Arp2/3", "format": "biochemical, rabbit", "conditions": "no Arp2/3, 300 nM fragment, 3 µM actin", "method": "300 nM each fragment; 3 µM actin. […] Error bars are standard error of mean.\nRabbit skeletal muscle actin was gel filtered as described. Concentrations of G-actin produced and used in experiments were in the range 35–65 µM.\n(§1) Fluorometry assays were performed as described previously. 370 μl assays used 3 μM actin as indicated unless otherwise specified. Pyrene-actin was added to 5%, mixed thoroughly, and added to the fluorometry cuvette. Polymerization salts, 10× KME (500 mM KCl, 10 mM MgCl2, 10 mM EGTA, 100 mM Tris-HCl [pH 8.0]) were mixed with fragments or G buffer to give final concentration of 0.5× KME before reading fluorescence. […] Experiments were carried out three separate times with different protein preparations and a representative graph shown."}, "G-actin [1]": {"system": "G-actin", "test": "MST, Las17 300-422 P387A / P388A to labelled G-actin", "format": "binding, rabbit", "conditions": "three repeats, not statistically significant", "text": "(§2) A Purified individual GST-tagged Sla1 SH3 domains were used to probe a Celluspot array consisting of a series of 12 amino acid peptides starting with residue 181, and subsequent peptides starting at two amino acid intervals, up to amino acid 540. Binding of GST-Sla1 SH3 to the array was identified by further probing of HRP-tagged anti-GST and subsequent visualisation using chemiluminescence. […] Error bars are standard error of mean.\nThe small reduction was not found to be statistically significant over three repeats.\n(§3) Microscale Thermophoresis (MST) assays were performed as described previously. Briefly, rabbit muscle actin in G-buffer minus DTT was […] using Monolith NT^TM Protein Labelling Kit RED-Malemide (NanoTemper Technologies, Munich, Germany). […] Each reaction was then loaded into Monolith NT.115 Premium Treated Capillaries (NanoTemper Technologies) and thermophoresis was measured in a Monolith NT.115 Microscale Thermophoresis device (NanoTemper Technologies). Thermophoresis was measured at 20% red LED power and 40% IR laser power at 22°C. Fnorm was calculated from the ratio of fluorescence before heating and after the new equilibrium had been reached. […] Each experiment was carried out three separate times with protein from different protein preparations and mean ± SE shown except for Fig. 7a where mean ± SD is shown."}, "[2]": {"molecular_target": "Las17 PPR-N fragment (residues 300-422), wild type (S. cerevisiae) (UniProt Q12446)", "test": "BLI; Octet R2 (Sartorius); Octet NTA Biosensors or Octet GST Biosensors, which partner was loaded is not stated; repeated three times; the constant of SH3#1-3 is called apparent"}, "[3]": {"system": "Las17 and las17 P387A expressing yeast strains", "test": "Latrunculin-A halo assay on yeast", "format": "cell-based, Saccharomyces cerevisiae", "conditions": "10 µl latrunculin-A disc, halo assay, 5 repeats", "method": "Supplementary Information.\nMethods used in Supplementary Data\nYeast strains, growth and staining\nYeast plasmids used in this study are listed in Supplementary table 1 and yeast strains used in Supplementary table 2. Unless stated otherwise, cells were grown with rotary shaking at 30°C in liquid YPD medium (1% yeast extract, 2% Bacto-peptone, 2% glucose supplemented with 40 μg/ml adenine) or in synthetic medium (0.67% yeast nitrogen base, 2% glucose) with appropriate supplements. Growth assays used solid medium with 2% agar added to above. All strains carrying fluorescent tags have growth properties similar to isogenic control strains with the exception of strains carrying dual reporters where lifetimes were longer for both wild type and mutant strains (in Figure 9D). Point mutations in LAS17 were generated using site directed mutagenesis (Agilent). DNA cassettes carrying mutations for integration were transformed into KAY1801. Mutant colonies were counter-selected on minimal medium, containing 0.005% uracil and 0.1% 5’-Fluoroorotic Acid (5-FOA; Melford labs). […]\nexpressing strains on plates on which a disc carrying 10 µl of latrunculin-A of varying concentrations was placed (white disc). […] They were then scored according to the extent of uptake and categorised according to the key shown. >100 cells were visualised for each strain in each of 3 independent experiments. […]"}, "[4]": {"system": "Las17 12mer peptides / GST-Sla1 SH3 domains", "test": "Peptide spot array (Celluspot) of Las17 12mers probed with GST-Sla1 SH3 domains", "format": "binding, Saccharomyces cerevisiae", "conditions": "GST-Sla1 SH3 domain on 12mer array, 2-residue offset, anti-GST HRP, chemiluminescence", "method": "as §2\nThey were incubated with GST fused SH3 domains of Sla1 or with GST alone, as described in ref.[57]. Membranes were probed with HRP tagged anti-GST, and the presence of SH3-GST fusion protein was detected with ECL chemiluminescent detection solution (Thermo Fisher Scientific)."}, "Las17": {"system": "Las17", "test": "Microscale thermophoresis, Sla1 SH3#2 to Las17", "format": "binding, Saccharomyces cerevisiae", "conditions": "could not be saturated within the concentration range", "text": "(§4) To investigate binding characteristics of the SH3 domains further, Sla1 SH3 protein domains were purified. Three Sla1 SH3 single domains, tandem domains Sla1 SH3#1&2, Sla1 SH3#1&2 W108A (in which the W108A mutation prevents proline motif binding by SH3#2 but not SH3#1) and a fragment with all three SH3 domains were expressed recombinantly and purified. […] This outcome is in line with original research of Rodal and colleagues and with more recent studies of avidity developed by Williamson, which highlighted the importance of tandem binding SH3 domains[13],[27].\nas §3"}, "[5]": {"system": "Las17 PPR-N fragment (residues 300-422)", "test": "Biolayer Interferometry (BLI), Sla1 SH3 domains to Las17 PPR-N", "format": "binding, Saccharomyces cerevisiae", "conditions": "Biolayer Interferometry", "text": "as §4\nBiolayer Interferometry (BLI) assays were performed using an OctetⓇ R2 (Sartorius). Protein samples were placed into the wells of a polystyrene plate (ProxiPlateTM, Perkin Elmer) and binding measured either with Octet NTA Biosensors or Octet GST Biosensors. Screening assays were performed to determine the optimum loading concentration and time for each binding pair to ensure that the probe was not saturated. All experiments were repeated three times, each time with newly prepared protein. Analysis and visualisation were performed using GraphPad Prism 10.0.2."}, "[6]": {"system": "Las17-Arp2/3 mediated actin polymerisation", "conditions": "15 nM Las17, 1 µM Sla1 SH3 domains, ref [13]; cited from earlier work", "text": "In Sla1 the first two SH3 domains are immediately juxtaposed with no linker. There are then 236 residues before the third SH3 domain (Fig. 1A)."}, "G-actin [7]": {"system": "G-actin", "test": "MST, Las17 300-422 to labelled G-actin in presence or absence of Sla1 SH3#1-3 (competition)", "format": "binding, rabbit", "conditions": "Sla1 SH3#1-3 4.5 µM, actin 50 nM, Las17(300–422) 0.29-9.5 µM", "protocol": "The experiment was then repeated with the addition of Sla1 SH3#1-3 fragment at 4.5 µM.\nError bars are standard deviation.\nMicroscale Thermophoresis (MST) assays were performed as described previously[15]. Briefly, rabbit muscle actin in G-buffer minus DTT was lysine labelled using Monolith NT^TM Protein Labelling Kit RED-Malemide (NanoTemper Technologies, Munich, Germany). […] Each reaction was then loaded into Monolith NT.115 Premium Treated Capillaries (NanoTemper Technologies) and thermophoresis was measured in a Monolith NT.115 Microscale Thermophoresis device (NanoTemper Technologies). Thermophoresis was measured at 20% red LED power and 40% IR laser power at 22°C. Fnorm was calculated from the ratio of fluorescence before heating and after the new equilibrium had been reached."}, "[8]": {"system": "Las17-Arp2/3 mediated actin polymerisation", "test": "Pyrene actin assay, inhibition of Las17-Arp2/3 mediated actin polymerisation by Sla1 SH3 domains", "format": "biochemical", "conditions": "Actin 3 µM, Las17 300 nM, Sla1 SH3 domains 300 nM each (1:1), with Arp2/3", "method": "SH3 domains of Sla1 are numbered #1, #2 and #3. […] PP in pink boxes indicate poly-proline tracts in this region. Other regions of Las17 are included but not to scale. B Representative pyrene actin assays show inhibition of Las17-Arp2/3 mediated actin polymerisation by Sla1-SH3 domains when added as separate domains (orange #1, green #2 or cyan #3) or on a single peptide (red). […] Sla1 SH3#1 (aa 3-68), SH3#3 (aa 354-413), SH3#1-2 (aa 5-131), SH3#1-3 (aa 5-413).\nas §1"}},
  "data": [
    {"molecule": "Las17(342–392): minimal Las17 fragment with two arginine-pair actin sites, left on GST tag", "values": [
      {"measurement": "stimulation of Arp2/3-independent actin polymerisation", "setting": "actin", "result": "unable to stimulate Arp2/3-independent actin polymerisation"}
    ]},
    {"molecule": "Las17 (300–422) P388A: Las17 (300–422) with P388A mutation", "values": [
      {"measurement": "effect on actin binding", "setting": "G-actin [1]", "result": "little change in actin binding"}
    ]},
    {"molecule": "Sla1 SH3#1&2 W108A (domain or fragment)", "values": [
      {"measurement": "Kd", "setting": "[2]", "result": 7.4, "unit": "µM"}
    ]},
    {"molecule": "Las17(300–633): Las17 fragment containing both PPR and VCA", "values": [
      {"measurement": "stimulation of Arp2/3-independent actin polymerisation", "setting": "actin", "result": "able to stimulate actin polymerisation in the absence of Arp2/3"}
    ]},
    {"molecule": "C/C1=C/C(=O)O[C@@H]2C[C@@H](CC[C@H](C)/C=C\\C=C\\CC1)O[C@@](O)([C@@H]1CSC(=O)N1)C2", "note": "[latrunculin-A, reference compound]", "values": [
      {"measurement": "increase in Lat-A sensitivity of las17 P387A compared to wild type", "setting": "[3]", "result": 7, "unit": "fold"}
    ]},
    {"molecule": "Las17 (300–422) P387A: Las17 (300–422) with P387A mutation", "values": [
      {"measurement": "effect on actin binding", "setting": "G-actin [1]", "result": "little change in actin binding"}
    ]},
    {"molecule": "Sla1 SH3#2: second SH3 domain of Sla1, GST-Sla1 SH3#2 in pGEX4T1 (protein, left off: GST, end not stated, cleaved, second SH3 domain of Sla1, GST-Sla1 SH3#2 in pGEX4T1) PVLKKVRAIYDYEQVQNADEELTFHENDVFDVFDDKDADWLLVKSTVSNEFGFIPGNYVEPENG", "values": [
      {"measurement": "binding to Las17 peptide spots", "setting": "[4]", "result": "only showed weak binding to spots"},
      {"measurement": "binding", "setting": "Las17", "result": "weak binding was detected"},
      {"measurement": "binding", "setting": "[5]; result in words", "result": "showed no binding"},
      {"measurement": "inhibition of actin polymerisation activity", "setting": "[6]", "result": "about 80%"}
    ]},
    {"molecule": "Sla1 SH3#1-3: SH3#1-3 (aa 5-413), fragment with all three SH3 domains (protein, left off: GST, end not stated, cleaved, SH3#1-3 (aa 5-413), fragment with all three SH3 domains) LGIYRAVYAYEPQTPEELAIQEDDLLYLLQKSDIDDWWTVKKRVIGSDSEEPVGLVPSTYIEEAPVLKKVRAIYDYEQVQNADEELTFHENDVFDVFDDKDADWLLVKSTVSNEFGFIPGNYVEPENGSTSKQEQAPAAAEAPAATPAAAPASAAVLPTNFLPPPQHNDRARMMQSKEDQAPDEDEEGPPPAMPARPTATTETTDATAAAVRSRTRLSYSDNDNDDEEDDYYYNSNSNNVGNHEYNTEYHSWNVTEIEGRKKKKAKLSIGNNKINFIPQKGTPHEWSIDKLVSYDNEKKHMFLEFVDPYRSLELHTGNTTTCEEIMNIIGEYKGASRDPGLREVEMASKSKKRGIVQYDFMAESQDELTIKSGDKVYILDDKKSKDWWMCQLVDSGKSGLVPAQFIEPV", "values": [
      {"measurement": "fold change in apparent Kd of actin for Las17", "setting": "G-actin [7]", "result": 40, "unit": "fold"},
      {"measurement": "fold change in apparent Kd of actin for Las17", "setting": "G-actin [7]; listed as Sla1", "result": 40.6, "unit": "fold"},
      {"measurement": "Kd", "setting": "[5]; Octet R2, Las17 (aa 300-422), three repeats with newly prepared protein, read-out: binding affinity (Kd)", "result": 0.039, "unit": "µM"},
      {"measurement": "inhibition of actin polymerisation activity", "setting": "[6]", "result": "about 85%"},
      {"measurement": "inhibition of Las17-Arp2/3 mediated actin polymerisation", "setting": "[8]", "result": "substantial inhibition of actin polymerisation"}
    ]}
  ]
}
